B1: Chromodomain-helicase-DNA-binding protein 4, residues 444 to 496; numbered along this chain, Q14839 (parent)
chain: EDDHHMEFCRVCKDGGELLCCDTCPSSYHIHCLNPPLPEIPNGEWLCPRCTCP

Variants of: B1
Test: abundance fitness (aPCA) (normalised: wild type 0, dead -1); higher = more abundant; growth selection in yeast, the domain comes from the species named
Conditions: Homo sapiens

Abundance fitness, by site and new letter:
P35: T -0.198; H -0.386; F -0.45; L -0.378; G -0.289; S -0.261; A -0.296; N -0.302; W -0.593; Y -0.301; V -0.399; I -0.432; K -0.199; Q -0.226; D -0.262; E -0.076
P36: A -0.035; T -0.18; M -0.274; G -0.244; W -0.546; S -0.1; C -0.546; Y -0.539; L -0.458; R -0.095; N -0.294; D -0.323; Q -0.026; K 0.102; E -0.33; F -0.604; V -0.22; I -0.195
L37: S -0.194; I -0.049; Q -0.135; N -0.244; R -0.233; M -0.115; T -0.23; E -0.249; V -0.066; P 0.018; W -0.248; C -0.194; Y -0.274; F -0.271
N34: R -0.205; T -0.014; G -0.345; E -0.145; L -0.197; M -0.127; D -0.114; K 0.052; A -0.08; V -0.073; F -0.158; I -0.075; H -0.262; S 0.018; C -0.155; P -0.219
C32: A -0.882; Q -0.369; N -1.15; L -0.99; S -0.821; F -1.02; R -0.857; W -1.05; V -0.914; M -1; P -0.937; D -0.68; I -0.898; K -0.933; E -0.66
H29: W -1.1; T -0.921; N -0.556; D -0.811; V -1.06; F -0.918; M -0.998; L -0.983; A -0.748; R -0.97; I -0.822; Q -0.833; S -0.728; E -0.804; P -0.814; C -0.317; Y -0.787
E39: N 0.026; I -0.026; D -0.292; A 0.011; Q -0.052; C -0.178; S 0.021; Y -0.201; F -0.056; G -0.056; R -0.09; T 0.025; M -0.095; P -0.152; K 0.121; W -0.35; L -0.189; H -0.132; V -0.025
T23: V -0.075; W -0.2; Y -0.084; S -0.044
S27: P -0.572; N -0.026; Q -0.064; T -0.044; G -0.22; R 0.016; M -0.14; W -0.198; C -0.018; I -0.394; V -0.057; F -0.177; D -0.705; A 0.067; K -0.082; E -0.472; Y 0.029; H -0.068
C24: T -0.862; F -1.01; W -0.905; A -0.739; K -0.702; S -0.788; E -1.09; L -0.816; P -0.819; H -0.909; V -0.617; Y -0.696; G -0.894; Q -0.907; I -0.706; R -0.629; N -0.881; M -0.944
P38: H -0.008; K 0.088; W -0.172; I -0.059; Q 0.085; R -0.046; G -0.196; M -0.082; E -0.096; L -0.115; S -0.075; A -0.014; V -0.113; F -0.153; D -0.031; N 0.065; T -0.003
P41: C -0.135; D -0.282; K -0.118; V -0.154; H -0.142; E -0.2; G -0.133; T -0.114; S -0.226; Q -0.18; M -0.187; R -0.144; L -0.228; N 0.029; Y -0.463; I -0.106; F -0.06; A -0.146
H31: I -0.217; W -0.285; M -0.063; E -0.046; A -0.138; K 0.035; T -0.042; D -0.197; C -0.046; S -0.203; N 0.106; Y -0.097; P -0.354; V -0.068; L -0.194; G 0.002; R -0.042; Q -0.042; F 0.017
L33: W -0.954; C -0.421; S -0.54; G -0.598; F -0.373; R -0.787; I -0.085; H -0.626; M -0.326; K -0.61; T -0.361; P -0.703; D -0.561; N -0.732; Q -0.602; A -0.429; E -0.685
I30: M 0.026; K -0.047; S -0.018; Q -0.159; H -0.106; F -0.037; W -0.238; Y -0.102; A -0.003; E -0.072; T -0.044; D -0.473; R -0.016; G -0.115; C -0.108; V 0.005; L -0.023; N -0.072
G43: E -0.07; C -0.16; D -0.151; F -0.188; A -0.079
N42: W -0.253; S -0.063; Q 0.005; I -0.096; C -0.061; M -0.127; K 0.081; H -0.094; D -0.085; F -0.219; Y -0.197; L -0.077; A 0.037; R -0.022; P -0.065; G 0.038; V 0.032
S26: F -0.039; Y -0.103; K -0.324; Q 0.08; E 0.015; R 0.003; N -0.073; W -0.11; P -0.625; L -0.088; M 0.132; A 0.104; G 0.029; C -0.05; V -0.132; H 0.021
Y28: H -0.54; T -0.531; F 0.015; C -0.639; W -0.259; N -0.528; L -0.712; S -0.566; V -0.471; E -0.64; M -0.656; K -0.833; G -0.605; Q -0.657; P -0.667; A -0.574
I40: V 0.055; P 0.112; L 0.01; Q 0.01; K 0.11; Y 0.016; A 0.07; S -0.023; D -0.152; E 0.056; M -0.106; G -0.007; N -0.066; R 0.151; F -0.057; W -0.041; C 0.019; T -0.005; H 0.017
P25: Q -0.209; A -0.124; M -0.167; K -0.078; E -0.28; G -0.106; C -0.087; V -0.18; F -0.167; I -0.15; L -0.163; R 0.032; D -0.172; N -0.303; H -0.024; S -0.1; W -0.061

Source: the Human Domainome abundance scans (Beltran et al. 2025)
